Reference: paper PMC5549892

Molecular target: BG505 SOSIP.664 gp140 envelope glycoprotein trimer (HIV-1 (BG505))
Test: native gel or EMSA

BG505 SOSIP.664 gp140 envelope glycoprotein trimer (complex)
stoichiometry N: 3
